# ± gives the standard error. Fewer inactive variants are shown than the library holds.
# B1: glmS ribozyme (parent)
# chain: AUAAAAGCGCCAGAACUACAGAAAUGUAGUUGACGAGGAGGAGGUUUAUCGAAUUUUCGGCGGAUGCCUCCAAA
# Variants of: B1
# Test: self-cleavage kobs at 2500 uM GlcN6P; higher = faster cleavage; RNA array
# Details: with glucosamine-6-phosphate
# Summary of the method: (§1)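 Ribozyme variants carrying barcodes were transcribed in situ on sequenced MiSeq chips by E. coli RNA polymerase and tracked at 37 °C with a hybridised Cy3 probe. They were exposed to 40 μM to 10 mM glucosamine-6-phosphate in HEPES/KCl/Mg(OAc)2 buffer. kobs came from exponential decay fits of normalised per-tile medians, and kcat and KM from weighted Michaelis–Menten fits.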
row,Variant,self-cleavage kobs at 2500 uM GlcN6P
1,G13C U45A U46C,5.29e-05 ± 1.6e-05 s⁻¹
2,C10U G32A G37A A42U C50A U69G,< 1e-05 s⁻¹
3,G32U A39U G60U,< 1e-05 s⁻¹
4,A53U U56G U65G,0.000913 ± 0.00018 s⁻¹
5,A14C G29U A39C U46G U47A,< 1e-05 s⁻¹
6,G13A A39U A64U,< 1e-05 s⁻¹
7,A14U G37C A42C,< 1e-05 s⁻¹
8,A42U A48G A52G C58G,< 1e-05 s⁻¹
9,C8U G9U U56A C70G,< 1e-05 s⁻¹
10,A6G A33C U46G,< 1e-05 s⁻¹
11,U31G G37U U56G,< 1e-05 s⁻¹
12,G29U G38C G59A,< 1e-05 s⁻¹
13,A12C U31G G32A,0.000161 ± 5.6e-05 s⁻¹
14,C16A U31G G32U,9.46e-05 ± 1.9e-05 s⁻¹
15,C10U C16G C34G A39G,< 1e-05 s⁻¹
16,A12C A36G G40U G43U U54G,< 1e-05 s⁻¹
17,G7U U56G C58U,< 1e-05 s⁻¹
18,G40U C50A U56A C67G C71U,< 1e-05 s⁻¹
19,A6G A33U C58A,< 1e-05 s⁻¹
20,A33C G41C U69G,< 1e-05 s⁻¹
21,A12U G41A C68U,3.9e-05 ± 1.6e-05 s⁻¹
22,G35U G40U U49G,< 1e-05 s⁻¹
23,G38A U54C G63U,< 1e-05 s⁻¹
24,A15U U30C C61G,< 1e-05 s⁻¹

row,Variant,self-cleavage kobs at 2500 uM GlcN6P
1,C50A U55G C67G,9.38e-05 ± 3.7e-05 s⁻¹
2,U45G G63U C70G,< 1e-05 s⁻¹
3,C11G G35C U45G C67A,< 1e-05 s⁻¹
4,U45A A48G C67G,8.99e-05 ± 3.1e-05 s⁻¹
5,U30A A33U C58G U69C,0.000281 ± 8.6e-05 s⁻¹
6,A42U U45G A53C,0.000111 ± 2.6e-05 s⁻¹
7,U30G G32A A42U A48G,< 1e-05 s⁻¹
8,A14C G21U,0.00132 ± 0.00031 s⁻¹
9,A14G G35U G37A,< 1e-05 s⁻¹
10,G37A A39C G63U,< 1e-05 s⁻¹
11,C16G G44U C70A,< 1e-05 s⁻¹
12,G13U G43U G63U,< 1e-05 s⁻¹
13,U57A C61G C70G,3.93e-05 ± 1.9e-05 s⁻¹
14,U30A A33U A39G G44C U47G A52U,< 1e-05 s⁻¹
15,G9C G38C C67U,< 1e-05 s⁻¹
16,G7U C10U A36U G44U U54A,< 1e-05 s⁻¹
17,A12U G41U U46C,9.28e-05 ± 3.6e-05 s⁻¹
18,C34G A42C G63C U65G,< 1e-05 s⁻¹
19,U31C G43C U65G,< 1e-05 s⁻¹
20,G44C C70A C71U,< 1e-05 s⁻¹
21,C11U A14G G43A,< 1e-05 s⁻¹
22,G29U G32C A42C U57G,< 1e-05 s⁻¹
23,C11A G40C G62A C68U,< 1e-05 s⁻¹
24,G7C G29U G32C A33G,< 1e-05 s⁻¹

row,Variant,self-cleavage kobs at 2500 uM GlcN6P
1,G13A G51C C67G,< 1e-05 s⁻¹
2,A6C U30C A39U U47A C50U A53C,< 1e-05 s⁻¹
3,C10U G29U G38A,0.00158 ± 0.0007 s⁻¹
4,A14G G37C A39G,6.41e-05 ± 1.9e-05 s⁻¹
5,G32U A42C U54A,< 1e-05 s⁻¹
6,C34U C50G C67A,8.66e-05 ± 2.1e-05 s⁻¹
7,A33U A48U G59A C61U C71U,< 1e-05 s⁻¹
8,U30G G40U U57G,< 1e-05 s⁻¹
9,G7C G9U G60A,< 1e-05 s⁻¹
10,A15U A39U U69C,0.000466 ± 0.00018 s⁻¹
11,G32C U55A,4.27e-05 ± 1.5e-05 s⁻¹
12,A15G A39C U45A U56C,0.000239 ± 5.6e-05 s⁻¹
13,G13C A36C C71U,< 1e-05 s⁻¹
14,A12G A39U U47G,8.38e-05 ± 1.6e-05 s⁻¹
15,G35C G40C C70U,< 1e-05 s⁻¹
16,A15U C16G C58A,0.000131 ± 2.8e-05 s⁻¹
17,C34A A48U C50U,< 1e-05 s⁻¹
18,A14C A39U G43U A64U,< 1e-05 s⁻¹
19,G37A G41A C61U,< 1e-05 s⁻¹
20,G7C A48U A64U C67U,< 1e-05 s⁻¹
21,A42G A48U A52G C70A,< 1e-05 s⁻¹
22,A33U G35C G62A,< 1e-05 s⁻¹
23,G32U U45C,1.98e-05 ± 7.1e-06 s⁻¹
24,C10A C50A C67U,0.000776 ± 0.00021 s⁻¹

row,Variant,self-cleavage kobs at 2500 uM GlcN6P
1,G44A U49C,< 1e-05 s⁻¹
2,G9A C50G C67G,9.36e-05 ± 2.6e-05 s⁻¹
3,A6C C8U U45G U65C C67A,< 1e-05 s⁻¹
4,G32U A42U C68A,< 1e-05 s⁻¹
5,U30G A33U G35C U46C,< 1e-05 s⁻¹
6,U31G G32U U45A C71U,0.000679 ± 0.00029 s⁻¹
7,A36U U46A U56G,< 1e-05 s⁻¹
8,G35A A42U G44A,< 1e-05 s⁻¹
9,A12G G59C C67U,4.19e-05 ± 1.9e-05 s⁻¹
10,C16U G41C C70A,0.000347 ± 0.00017 s⁻¹
11,G32C A33C U47C A64C,< 1e-05 s⁻¹
12,U30G G59C U65G,< 1e-05 s⁻¹
13,A15U U31A C70A,6.54e-05 ± 2.7e-05 s⁻¹
14,G13A A52U U54C,< 1e-05 s⁻¹
15,U30A G63A U69C,< 1e-05 s⁻¹
16,U30A G43U,< 1e-05 s⁻¹
17,A15C G32U G38C G59U,< 1e-05 s⁻¹
18,C11A U49G,< 1e-05 s⁻¹
19,C11A C34A G60U,< 1e-05 s⁻¹
20,G7U G35U G44U,< 1e-05 s⁻¹
21,G37U A48C A53G,< 1e-05 s⁻¹
22,A14G A36G U56G G59C G62U,< 1e-05 s⁻¹
23,A15C C16G A39C U46G U56C,< 1e-05 s⁻¹
24,C16A U56G C70U,0.000265 ± 6e-05 s⁻¹

row,Variant,self-cleavage kobs at 2500 uM GlcN6P
1,A6G A12G U54G A64U C70G,< 1e-05 s⁻¹
2,U30G U57A G60U,< 1e-05 s⁻¹
3,U47A U57C,0.000104 ± 2.6e-05 s⁻¹
4,G9U C10U C34U U46A,< 1e-05 s⁻¹
5,A6U G41C U65A G66C,< 1e-05 s⁻¹
6,A6U C16G G40C G41A C70A,< 1e-05 s⁻¹
7,G7U G32C U54A,< 1e-05 s⁻¹
8,C10U G29C A36G G41U U54A,< 1e-05 s⁻¹
9,A6G A15C G63A,< 1e-05 s⁻¹
10,C8A U57C C70G C71U,< 1e-05 s⁻¹
11,C34A G43A U54G,< 1e-05 s⁻¹
12,G9A A15G C34G U55C C71G,< 1e-05 s⁻¹
13,G9C C11A G35A G37U A39C G59U,< 1e-05 s⁻¹
14,A12U A15C G41C C61U G66A,< 1e-05 s⁻¹
15,G13A G32U C67A,3.47e-05 ± 1.3e-05 s⁻¹
16,G29U G41U C67G,< 1e-05 s⁻¹
17,G9U C16A C34A C50G,7.29e-05 ± 2.6e-05 s⁻¹
18,G13U G37U U55G G66U,< 1e-05 s⁻¹
19,C10U C67G C68U,0.000126 ± 4.8e-05 s⁻¹
20,A6U C11G G44C C68G,< 1e-05 s⁻¹
21,G9A G62U U69G,< 1e-05 s⁻¹
22,G7A C8U A36G G60U,< 1e-05 s⁻¹
23,A6C A12U C50G G51C U54A,< 1e-05 s⁻¹
24,G29C C67A C68G,7.78e-05 ± 2.8e-05 s⁻¹

row,Variant,self-cleavage kobs at 2500 uM GlcN6P
1,A33C A36U G37A U47C,< 1e-05 s⁻¹
2,A6G A52C U65G,< 1e-05 s⁻¹
3,A12U G32U G43C,< 1e-05 s⁻¹
4,A14G G51C G62C U65A C68G C70A,< 1e-05 s⁻¹
5,A39C C67G C70A,< 1e-05 s⁻¹
6,A14U A48G C58A A64U C70G,5.92e-05 ± 2.4e-05 s⁻¹
7,A36C G44A C70A,< 1e-05 s⁻¹
8,C11A U47G C61G,< 1e-05 s⁻¹
9,U30G A53U C58G,0.000116 ± 3.9e-05 s⁻¹
10,A15G G32C C70G,< 1e-05 s⁻¹
11,U47G C50G,4.35e-05 ± 1.2e-05 s⁻¹
12,U31G G38U A42U,< 1e-05 s⁻¹
13,C10A G40U U47G U49C U55A,< 1e-05 s⁻¹
14,A14C C16U G40C G44A G60A,< 1e-05 s⁻¹
15,G13U U30C G32C,6.71e-05 ± 2.9e-05 s⁻¹
16,C10A G40A U55A,< 1e-05 s⁻¹
17,G13A U30G A53U,0.000141 ± 4.4e-05 s⁻¹
18,C11A A12U G35U C50G,0.000171 ± 4.2e-05 s⁻¹
19,A15C G37A U65G,8.59e-05 ± 2.6e-05 s⁻¹
20,A22C C34G A42C C50U G66U C68U U69G C70G C71U,< 1e-05 s⁻¹
21,C34A A36G G38U U69G,4.35e-05 ± 2e-05 s⁻¹
22,C11G A15G G59U,9.06e-05 ± 3.1e-05 s⁻¹
23,A12U C50U U65C,< 1e-05 s⁻¹
24,A12C A52C,< 1e-05 s⁻¹

row,Variant,self-cleavage kobs at 2500 uM GlcN6P
1,G43U G60A G66A C68G C70G,< 1e-05 s⁻¹
2,A33C U54C C67G C68G C70U,< 1e-05 s⁻¹
3,C10A G35A A36U,< 1e-05 s⁻¹
4,G32A G41C C68U,< 1e-05 s⁻¹
5,G40A G62U C70G,< 1e-05 s⁻¹
6,A33U U55C G60C,< 1e-05 s⁻¹
7,C16U G35U G38U C50A,< 1e-05 s⁻¹
8,A14C U54A U55A,0.00221 ± 0.00054 s⁻¹
9,A12C U65G U69C,0.000703 ± 0.0002 s⁻¹
10,A6C U47C G63C,< 1e-05 s⁻¹
11,C8A G32U A42U A48G G51C,< 1e-05 s⁻¹
12,A33U G43A U57C,< 1e-05 s⁻¹
13,G7C A42G U69G,< 1e-05 s⁻¹
14,A6G G44A A52U C61U G62A C70G C71U,< 1e-05 s⁻¹
15,G35C G38U G43U,< 1e-05 s⁻¹
16,C16U U30A U65A,8.89e-05 ± 1.9e-05 s⁻¹
17,C8U G38C C61A,< 1e-05 s⁻¹
18,G13U U47C A64G,0.000125 ± 3.1e-05 s⁻¹
19,G40U U54G C70G C71A,6.39e-05 ± 1.8e-05 s⁻¹

# Variants of: B1
# Test: self-cleavage kobs at 10000 uM GlcN6P; higher = faster cleavage; RNA array
# Details: with glucosamine-6-phosphate
# Summary of the method: as §1
row,Variant,self-cleavage kobs at 10000 uM GlcN6P
1,A6G A33C U46G,< 1e-05 s⁻¹
2,G7U U56G C58U,< 1e-05 s⁻¹
3,A12U G41A C68U,6.86e-05 ± 1.4e-05 s⁻¹
4,G32C U55A,9.57e-05 ± 1.5e-05 s⁻¹
5,G32U U45C,4.42e-05 ± 5.9e-06 s⁻¹
6,C10A C50A C67U,4.36e-05 ± 1.7e-05 s⁻¹
7,U30A G43U,< 1e-05 s⁻¹
8,U47A U57C,0.000159 ± 2.5e-05 s⁻¹
9,A6G A52C U65G,< 1e-05 s⁻¹
